For two variants, ratio to parent results are on record in PMC11752098.

The chains are these.
B1: wild-type GABRA2 (α2 subunit of the γ-aminobutyric acid A receptor), FLAG-tagged [human] / GABRG2 (γ2 subunit of the GABA-A receptor) [human (endogenous in 293T)] (parent)
chain 1: NIQEDEAKNNITIFTRILDRLLDGYDNRLRPGLGDSITEVFTNIYVTSFGPVSDTDMEYTIDVFFRQKWKDERLKFKGPMNILRLNNLMASKIWTPDTFFHNGKKSVAHNMTMPNKLLRIQDDGTLLYTMRLTVQAECPMHLEDFPMDAHSCPLKFGSYAYTTSEVTYIWTYNASDSVQVAPDGSRLNQYDLLGQSIGKETIKSSTGEYTVMTAHFHLKRKIGYFVIQTYLPCIMTVILSQVSFWLNRESVPARTVFGVTTVLTMTTLSISARNSLPKVAYATAMDWFIAVCYAFVFSALIEFATVNYFTKRGWAWDGKSVVNDKKKEKASVMIQNNAYAVAVANYAPNLSKDPVLSTISKSATTPEPNKKPENKPAEAKKTFNSVSKIDRMSRIVFPVLFGTFNLVYWATYLNREPVLGVSP
chain 2: QKSDDDYEDYASNKTWVLTPKVPEGDVTVILNNLLEGYDNKLRPDIGVKPTLIHTDMYVNSIGPVNAINMEYTIDIFFAQTWYDRRLKFNSTIKVLRLNSNMVGKIWIPDTFFRNSKKADAHWITTPNRMLRIWNDGRVLYTLRLTIDAECQLQLHNFPMDEHSCPLEFSSYGYPREEIVYQWKRSSVEVGDTRSWRLYQFSFVGLRNTTEVVKTTSGDYVVMSVYFDLSRRMGYFTIQTYIPCTLIVVLSWVSFWINKDAVPARTSLGITTVLTMTTLSTIARKSLPKVSYVTAMDLFVSVCFIFVFSALVEYGTLHYFVSNRKPSKDKDKKKKNPLLRMFSFKAPTIDIRPRSATIQMNNATHLQERDEEYGYECLDGKDCASFFCCFEDCRTGAWRHGRIHIRIAKMDSYARIFFPTAFCLFNLVYWVSYLYL
B2: wild-type GABRA2 (α2 subunit of the γ-aminobutyric acid A receptor), FLAG-tagged [human] / GABRB3 (β3 subunit of the GABA-A receptor) [human (endogenous in 293T)] (parent)
chain 1: B1 chain 1
chain 2: QSVNDPGNMSFVKETVDKLLKGYDIRLRPDFGGPPVCVGMNIDIASIDMVSEVNMDYTLTMYFQQYWRDKRLAYSGIPLNLTLDNRVADQLWVPDTYFLNDKKSFVHGVTVKNRMIRLHPDGTVLYGLRITTTAACMMDLRRYPLDEQNCTLEIESYGYTTDDIEFYWRGGDKAVTGVERIELPQFSIVEHRLVSRNVVFATGAYPRLSLSFRLKRNIGYFILQTYMPSILITILSWVSFWINYDASAARVALGITTVLTMTTINTHLRETLPKIPYVKAIDMYLMGCFVFVFLALLEYAFVNYIFFGRGPQRQKKLAEKTAKAKNDRSKSESNRVDAHGNILLTSLEVHNEMNEVSGGIGDTRNSAISFDNSGIQYRKQSMPREGHGRFLGDRSLPHKKTHLRRRSSQLKIKIPDLTDVNAIDRWSRIVFPFTFSLFNLVYWLYYVN

Variants of B1 are the subject of one experiment. The experiment in a line: co-immunoprecipitation (anti-FLAG beads) with Western blot quantification. The note with it: with GABRG2 (γ2 subunit of the GABA-A receptor) [human (endogenous in 293T)]; 293T cells transfected with FLAG-tagged GABRA2-WT or GABRA2-MUT; parent: 1; read off a plot. On the technique in general: A western blot detects proteins with antibodies after separation by electrophoresis.
On to chain 1 A280V, for which the ratio to parent was found to be 0.88.

The next experiment covers variants of B2. The experiment is described as above. The note with it: with GABRB3 (β3 subunit of the GABA-A receptor) [human (endogenous in 293T)]; 293T cells transfected with FLAG-tagged GABRA2-WT or GABRA2-MUT; parent: 1; read off a plot.
Consider chain 1 A280V, for which the ratio to parent was 0.87.
